From publication PMC11897886 (Nucleic Acids Research, 2024)

T1: CBP-Upf1-HD-Ct (S. cerevisiae, UniProt P30771 221-971)
T1 sequence: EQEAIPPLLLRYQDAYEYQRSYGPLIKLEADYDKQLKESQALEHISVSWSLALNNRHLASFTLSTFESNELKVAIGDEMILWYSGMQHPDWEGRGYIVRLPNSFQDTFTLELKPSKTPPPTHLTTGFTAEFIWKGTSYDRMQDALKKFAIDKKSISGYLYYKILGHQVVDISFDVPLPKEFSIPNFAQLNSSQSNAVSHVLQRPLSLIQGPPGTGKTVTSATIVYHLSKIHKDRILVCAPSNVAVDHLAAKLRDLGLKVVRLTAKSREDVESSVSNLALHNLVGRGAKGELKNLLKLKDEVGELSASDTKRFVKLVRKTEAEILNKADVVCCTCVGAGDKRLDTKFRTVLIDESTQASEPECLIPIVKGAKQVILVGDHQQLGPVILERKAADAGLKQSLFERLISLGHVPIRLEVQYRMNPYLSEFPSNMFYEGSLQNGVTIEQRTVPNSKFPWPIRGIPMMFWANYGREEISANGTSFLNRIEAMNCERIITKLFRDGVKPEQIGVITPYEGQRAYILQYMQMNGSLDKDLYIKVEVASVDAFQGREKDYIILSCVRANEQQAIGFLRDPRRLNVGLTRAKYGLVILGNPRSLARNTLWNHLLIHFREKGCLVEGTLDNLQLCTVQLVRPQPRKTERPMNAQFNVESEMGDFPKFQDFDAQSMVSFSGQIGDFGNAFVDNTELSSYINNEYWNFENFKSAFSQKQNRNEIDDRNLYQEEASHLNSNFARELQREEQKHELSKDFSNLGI

T2: CBP-Upf1-HD (S. cerevisiae, UniProt P30771 221-851)
T2 sequence: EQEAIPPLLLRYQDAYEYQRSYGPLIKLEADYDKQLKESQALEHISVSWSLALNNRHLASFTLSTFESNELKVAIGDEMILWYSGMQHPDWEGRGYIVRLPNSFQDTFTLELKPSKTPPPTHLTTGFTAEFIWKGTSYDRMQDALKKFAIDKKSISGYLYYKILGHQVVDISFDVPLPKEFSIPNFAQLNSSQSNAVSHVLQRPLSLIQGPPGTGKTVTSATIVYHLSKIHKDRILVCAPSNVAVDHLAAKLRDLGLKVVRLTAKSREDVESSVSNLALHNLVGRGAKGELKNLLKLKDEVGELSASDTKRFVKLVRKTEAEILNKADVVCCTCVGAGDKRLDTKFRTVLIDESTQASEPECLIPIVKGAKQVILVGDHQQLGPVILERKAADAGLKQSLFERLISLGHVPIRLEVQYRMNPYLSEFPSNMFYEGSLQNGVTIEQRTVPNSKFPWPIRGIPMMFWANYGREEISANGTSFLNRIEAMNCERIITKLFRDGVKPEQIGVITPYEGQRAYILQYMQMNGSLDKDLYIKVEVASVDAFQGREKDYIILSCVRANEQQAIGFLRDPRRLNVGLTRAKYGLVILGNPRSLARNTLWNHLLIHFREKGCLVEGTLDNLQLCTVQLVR

T3: CBP-Upf1-FL (S.c. Upf1 full-length) (S. cerevisiae, UniProt P30771 1-971)
T3 sequence: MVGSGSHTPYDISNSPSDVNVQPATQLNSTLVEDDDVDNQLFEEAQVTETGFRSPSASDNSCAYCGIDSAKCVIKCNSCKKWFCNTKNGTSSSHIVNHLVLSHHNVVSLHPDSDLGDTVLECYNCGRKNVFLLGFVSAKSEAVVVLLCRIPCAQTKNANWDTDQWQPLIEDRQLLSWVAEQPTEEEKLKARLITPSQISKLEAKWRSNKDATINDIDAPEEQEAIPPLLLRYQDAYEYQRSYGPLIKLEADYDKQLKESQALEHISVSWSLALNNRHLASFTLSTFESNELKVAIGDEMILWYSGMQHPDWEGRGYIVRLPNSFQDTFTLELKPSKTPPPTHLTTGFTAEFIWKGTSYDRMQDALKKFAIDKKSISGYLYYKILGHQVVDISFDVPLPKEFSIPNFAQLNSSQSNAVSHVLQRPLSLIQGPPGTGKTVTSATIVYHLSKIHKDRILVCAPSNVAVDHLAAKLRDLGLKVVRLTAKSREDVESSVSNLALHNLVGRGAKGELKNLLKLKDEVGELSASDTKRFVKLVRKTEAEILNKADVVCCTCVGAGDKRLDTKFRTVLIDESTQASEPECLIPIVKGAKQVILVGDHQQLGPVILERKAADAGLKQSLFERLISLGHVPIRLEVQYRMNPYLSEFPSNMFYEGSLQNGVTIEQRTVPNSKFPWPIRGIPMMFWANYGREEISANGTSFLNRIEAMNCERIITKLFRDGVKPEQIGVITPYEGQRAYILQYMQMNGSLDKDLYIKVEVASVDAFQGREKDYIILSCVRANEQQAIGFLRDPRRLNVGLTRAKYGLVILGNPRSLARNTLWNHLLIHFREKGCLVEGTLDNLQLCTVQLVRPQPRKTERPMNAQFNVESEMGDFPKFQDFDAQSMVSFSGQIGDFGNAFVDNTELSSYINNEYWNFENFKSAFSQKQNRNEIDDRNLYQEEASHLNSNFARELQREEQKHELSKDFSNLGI

T4: CBP-Upf1-CH-HD (S. cerevisiae, UniProt P30771 54-851)
T4 sequence: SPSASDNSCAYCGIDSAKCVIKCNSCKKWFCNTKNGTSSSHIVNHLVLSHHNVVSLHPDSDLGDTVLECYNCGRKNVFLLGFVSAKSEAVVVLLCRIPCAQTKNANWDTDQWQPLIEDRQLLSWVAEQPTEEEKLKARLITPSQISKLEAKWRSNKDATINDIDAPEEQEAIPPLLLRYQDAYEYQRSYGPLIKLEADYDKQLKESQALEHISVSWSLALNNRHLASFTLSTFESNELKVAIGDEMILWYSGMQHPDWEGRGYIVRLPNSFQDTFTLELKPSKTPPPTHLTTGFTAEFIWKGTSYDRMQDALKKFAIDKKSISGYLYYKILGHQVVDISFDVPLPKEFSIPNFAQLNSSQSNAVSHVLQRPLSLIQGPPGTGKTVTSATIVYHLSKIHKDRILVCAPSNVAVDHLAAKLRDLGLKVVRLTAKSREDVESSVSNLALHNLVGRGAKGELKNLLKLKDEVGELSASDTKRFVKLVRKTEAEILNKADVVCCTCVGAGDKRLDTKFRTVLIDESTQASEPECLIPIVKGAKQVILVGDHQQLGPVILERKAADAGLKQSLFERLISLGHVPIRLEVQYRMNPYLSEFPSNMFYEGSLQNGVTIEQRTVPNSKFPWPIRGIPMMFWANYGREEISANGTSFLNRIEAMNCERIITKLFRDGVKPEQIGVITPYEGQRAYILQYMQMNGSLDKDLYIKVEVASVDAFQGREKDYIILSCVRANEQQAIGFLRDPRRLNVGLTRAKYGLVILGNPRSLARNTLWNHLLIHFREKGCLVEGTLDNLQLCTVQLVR

B1: GST-tagged full-length Dcp1 (aa 1-231) (natural protein)
chain: MTGAATAAENSATQLEFYRKALNFNVIGRYDPKIKQLLFHTPHASLYKWDFKKDEWNKLEYQGVLAIYLRDVSQNTNLLPVSPQEVDIFDSQNGSNNIQVNNGSDNSNRNSSGNGNSYKSNDSLTYNCGKTLSGKDIYNYGLIILNRINPDNFSMGIVPNSVVNKRKVFNAEEDTLNPLECMGVEVKDELVIIKNLKHEVYGIWIHTVSDRQNIYELIKYLLENEPKDSFA
B2: GST-Ebs1 (aa 1-591) (domain or fragment)
chain: MEPSNTQKEDLPTAFNGIKSQLNSILKSNQLFQDYALLNGFLAFVHSKLNAAILTSIESQCGKSFAADLDSFDQSSISSILDFSWESVHYPIFKWFQMWRNYILFEKENKKQQTKFIDFRKMNSKMLKFFKTVQNFYVNVINTVYKKYDISVLLPKRIIQDLKLSDIENTTNVGDILAVKTFNSSSPLAHLIPTLFHRCLLFLGTAYRYKTLLEEISNKYSISNFKKSLDFFRLASLVLPSAGETYSQAGAIFLQTGNLGIAVFNFVKGMMTKMPSPVSIKNFGALMVDNKSSLNRSLHTTIMNTYLQESKGPRTPAKEILEFYFLGLFGSVWSPTSWRDDTKPNQLNNGIKLRHLENALYETMSARYLNNIKTIFHNLIITIGGFHLLLKRRSDVSAKTLKDLRSNELDYLNFAFKYIAHILNDIVKESWSENPEVSEILGMVRIINCWIKANPMVLQYSQSNLEFVNALAYLINDIVKKKPSPSFSITEHIPKRTYWFEEDLMVKGLSFVNFQLSDFDDYEKILEMDHSLDRLIGNPPLCDKLSASSEMLLRLQAVVNISSQLLQNNNCGVEWSDNKSRYIFNKKIGFK
B3: HisSUMO-tagged Ebs1 (aa 1-591) (domain or fragment)
chain: MEPSNTQKEDLPTAFNGIKSQLNSILKSNQLFQDYALLNGFLAFVHSKLNAAILTSIESQCGKSFAADLDSFDQSSISSILDFSWESVHYPIFKWFQMWRNYILFEKENKKQQTKFIDFRKMNSKMLKFFKTVQNFYVNVINTVYKKYDISVLLPKRIIQDLKLSDIENTTNVGDILAVKTFNSSSPLAHLIPTLFHRCLLFLGTAYRYKTLLEEISNKYSISNFKKSLDFFRLASLVLPSAGETYSQAGAIFLQTGNLGIAVFNFVKGMMTKMPSPVSIKNFGALMVDNKSSLNRSLHTTIMNTYLQESKGPRTPAKEILEFYFLGLFGSVWSPTSWRDDTKPNQLNNGIKLRHLENALYETMSARYLNNIKTIFHNLIITIGGFHLLLKRRSDVSAKTLKDLRSNELDYLNFAFKYIAHILNDIVKESWSENPEVSEILGMVRIINCWIKANPMVLQYSQSNLEFVNALAYLINDIVKKKPSPSFSITEHIPKRTYWFEEDLMVKGLSFVNFQLSDFDDYEKILEMDHSLDRLIGNPPLCDKLSASSEMLLRLQAVVNISSQLLQNNNCGVEWSDNKSRYIFNKKIGFK
B4: GST-Dcp2-UBM (aa 434-720) (domain or fragment)
chain: GYSSSSPGQLLDILNSKKPDSNVQSSKKPKLKILQRGTDLNSIKQNNNDETAHSNSQALLDLLKKPTSSQKIHASKPDTSFLPNDSVSGIQDAEYEDFESSSDEEVETARDERNSLNVDIGVNVMPSEKDSRRSQKEKPRNDASKTNLNASAESNSVEWGPGKSSPSTQSKQNSSVGMQNKYRQEIHIGDSDAYEVFESSSDEEDGKKLEELEQTQDNSKLISQDILKENNFQDGEVPHRDMPTESNKSINETVGLSSTTNTVKKVPKVKILKRGETFASLANDKKA
B5: GST-Dcp2-UBM1 (aa 434-508) (domain or fragment)
chain: GYSSSSPGQLLDILNSKKPDSNVQSSKKPKLKILQRGTDLNSIKQNNNDETAHSNSQALLDLLKKPTSSQKIHAS

Tests used:
Test in all cases: pull-down
CBP-Upf1-HD-Ct = biological target: T1, CBP-Upf1-HD-Ct
CBP-Upf1-HD = biological target: T2, CBP-Upf1-HD
[1] = biological target: T3, CBP-Upf1-FL (S.c. Upf1 full-length)
CBP-Upf1-CH-HD = biological target: T4, CBP-Upf1-CH-HD

Binder	binding result (CBP-Upf1-HD-Ct)	binding result (CBP-Upf1-HD)	binding result [1]	binding result (CBP-Upf1-CH-HD)
B1	binds	binds	binds	binds
B2	–	–	binds	–
B3	–	–	binds	–
B4	–	–	binds	binds
B5	–	–	binds	binds
VGLSSTTNTVKKVPKVKILKRGETFASLANDKKA (domain or fragment) [GST-Dcp2-UBM2 (aa 687-720)]	–	–	binds	binds
